In series [1] the target is T1, Roquin-1 ROQ domain (SPR, EMSA wild type) (UniProt Q4VGL6 171-326).
T1 sequence: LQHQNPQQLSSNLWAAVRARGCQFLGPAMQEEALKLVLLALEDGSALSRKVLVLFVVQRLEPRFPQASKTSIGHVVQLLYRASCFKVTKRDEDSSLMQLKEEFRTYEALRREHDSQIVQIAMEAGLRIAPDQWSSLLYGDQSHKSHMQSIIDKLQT
The experiment in a line: SPR; 2 mM Mg2+, 10 C; SPR: 10 mM HEPES pH 7.4, 150 mM NaCl, 2 mM MgCl2, 0.005% Tween 20, 10 C, ROQ immobilized; EMSA: 20 mM HEPES pH 7.4, 50 mM NaCl, 1 mM MgCl2, 1 mM DTT, 1 ug/ul BS.

Another series concerns the target T2, Roquin-1 ROQ (171-326) (UniProt Q4VGL6 171-326).
T2 sequence: T1 sequence
The experiment in a line: NMR; 298 K; SPR: 10 mM HEPES pH 7.4, 150 mM NaCl, 2 mM MgCl2, 0.005% Tween 20, 10 C, ROQ immobilized; EMSA: 20 mM HEPES pH 7.4, 50 mM NaCl, 1 mM MgCl2, 1 mM DTT, 1 ug/ul BS. On the technique in general: Mobility shift assays separate free from complexed probe on a gel.

A further series addresses T3, Roquin-1 ROQ (147-326) (UniProt Q4VGL6 147-326).
T3 sequence: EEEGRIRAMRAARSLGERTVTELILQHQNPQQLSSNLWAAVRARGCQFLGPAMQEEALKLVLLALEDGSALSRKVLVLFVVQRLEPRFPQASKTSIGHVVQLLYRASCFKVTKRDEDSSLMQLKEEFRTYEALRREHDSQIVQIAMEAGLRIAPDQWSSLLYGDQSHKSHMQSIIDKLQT
The experiment in a line: EMSA; SPR: 10 mM HEPES pH 7.4, 150 mM NaCl, 2 mM MgCl2, 0.005% Tween 20, 10 C, ROQ immobilized; EMSA: 20 mM HEPES pH 7.4, 50 mM NaCl, 1 mM MgCl2, 1 mM DTT, 1 ug/ul BS.

In another series the target is T4, Roquin-1 N-term (UniProt Q4VGL6 2-440).
T4 sequence: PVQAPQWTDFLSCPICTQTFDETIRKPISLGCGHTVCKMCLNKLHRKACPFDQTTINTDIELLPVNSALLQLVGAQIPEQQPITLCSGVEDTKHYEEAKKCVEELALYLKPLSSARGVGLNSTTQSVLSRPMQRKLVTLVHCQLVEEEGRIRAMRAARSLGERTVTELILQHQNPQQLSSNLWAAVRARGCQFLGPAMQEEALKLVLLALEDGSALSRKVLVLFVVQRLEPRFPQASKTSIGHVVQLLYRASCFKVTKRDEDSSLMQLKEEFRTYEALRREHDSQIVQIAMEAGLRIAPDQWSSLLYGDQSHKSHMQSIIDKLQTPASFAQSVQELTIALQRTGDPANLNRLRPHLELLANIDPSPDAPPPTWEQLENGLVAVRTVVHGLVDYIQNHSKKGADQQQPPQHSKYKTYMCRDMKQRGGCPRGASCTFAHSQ
The description is as above.

Broadly, the Kd is the constant that tells how readily two partners part at equilibrium. For the molecule UCCACACCGUUCUAGGUGCUGG (structured_RNA) [Ox40 ADE-like SL], the affinity in series [1], expressed as Kd, was 81 ± 22 nM.
Turning to UCCACACAGUUCUAUGUGCUGG (structured_RNA) [Ox40 ADE-like Mut4 (C8A,G15U)], the affinity in series [1], expressed as Kd, was 234 ± 63 nM.
ACAUGUUUUCUGUGAAAACGGAG (structured_RNA) [Tnf CDE SL] had a Kd in series [1] of 42 ± 19 nM.
Turning to UGACUGCGUUUUAGGAGUUA (structured_RNA) [SELEX-derived ADE SL], the binding result with Roquin-1 ROQ (171-326) is listed as “binds”.
As to CUAUGUAUGCUAUGCAUACUACC (structured_RNA) [Ox40 CDE-like SL], the binding result with Roquin-1 ROQ (147-326) and with Roquin-1 N-term was “binds” each time.
On to UCCACACCCUUCUAGGUGCUGG (structured_RNA) [Ox40 ADE-like Mut2 (G9C)], for which the binding result in series [1] was “no binding”.
Turning to UCCACACCGUACGAGGUGCUGG (structured_RNA) [Ox40 ADE-like Mut3 (U11A,U13G)], the binding result in series [1] is “no binding”.

Source of the values: paper PMC5603727.
